The supplement of paper PMC9732359
± gives the uncertainty stated by the source.

Assay: protein stability index of a GFP-peptide fusion (yeast GPS) (PSI 1-4); higher = more stable; sorted into four equal gates, so the index is relative within each strain
How it was run: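 Plasmids in a pooled yeast library fused tiled 17-residue yeast protein peptides downstream of GFP and also expressed Cherry. Mid-log cultures grown without leucine were sorted into four equal gates by GFP/Cherry fluorescence ratio. Each gate's plasmids were PCR-amplified and Illumina-sequenced, and reads were matched to strains by barcodes. The protein stability index is derived by multiplying each gate's read frequency by its gate number and summing the results.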

| Sequence | protein stability index (doa10∆) | protein stability index (pdr5∆) | protein stability index (ubr1∆) | protein stability index (san1∆) |
| --- | --- | --- | --- | --- |
| AIPNGIHLQRFDEGTTL [RPO21] | 2.29 ± 0.064 | 1.89 ± 0.11 | 2.32 ± 0.062 | – |
| LRKLKKMNNKPERFMVF [RPC53] | 3.19 ± 0.099 | 3.35 ± 0.14 | 3.18 ± 0.14 | 3.03 ± 0.099 |
| LLDKYGKTGLSNMILGS [YML103C/NUP188] | 2.34 ± 0.078 | 2.75 ± 0.11 | 2.12 ± 0.058 | 2.26 ± 0.095 |
| PRMASVFENYVKKTGEN [CDC53] | 3.46 ± 0.11 | 3.4 ± 0.087 | 3.47 ± 0.049 | 3.54 ± 0.065 |
| KVGEDIAKATKEFKGIK [RPL12A] | 3.07 ± 0.16 | 3.22 ± 0.14 | 3.17 ± 0.15 | 3.25 ± 0.15 |
| FYLYMLVQKFGGADQVT [SWI1] | – | 1.35 ± 0.19 | 1.75 ± 0.14 | – |
| KSAEGNNIDQSLILKES [YAR002W/NUP60] | 2.82 ± 0.095 | 2.86 ± 0.063 | 3 ± 0.078 | 2.61 ± 0.096 |
| CVDDNSKISFIDEDKLY [SSN2] | 3.59 ± 0.25 | 2.98 ± 0.1 | 2.82 ± 0.29 | – |
| IPTTKNLRLLVEENRVR [DLS1] | – | 3.08 ± 0.1 | 2.12 ± 0.061 | 2.87 ± 0.097 |
| VNNGNIPSQRGTSTTHG [SIR3] | 2.37 ± 0.16 | 2.85 ± 0.088 | 2.73 ± 0.072 | 2.78 ± 0.094 |
| SLDLNNLELGGLNMDFL [PGD1] | 3.24 ± 0.098 | 3.19 ± 0.099 | 2.74 ± 0.11 | 3.37 ± 0.082 |
| SDDYDNEGAASSNPQSA [SMC1] | 2.91 ± 0.16 | 3.42 ± 0.13 | 3.13 ± 0.051 | 2.65 ± 0.12 |
| ANETDKRPTPPSFTFGG [YOR098C/NUP1] | 3.01 ± 0.042 | 3.18 ± 0.047 | 3.1 ± 0.033 | 2.96 ± 0.037 |
| GYDIFLNVVLDDAMEIN [SMX2] | 3.13 ± 0.064 | 3.07 ± 0.075 | 2.99 ± 0.06 | 3.17 ± 0.054 |
| RDREPKEPVALIETVRQ [RPN2] | 3.32 ± 0.081 | 3.47 ± 0.12 | 3.34 ± 0.071 | 3.12 ± 0.079 |
| VLIDLLNWFRTTNMNVN [RGR1] | 2.9 ± 0.11 | 1.66 ± 0.068 | 1.92 ± 0.093 | 3.19 ± 0.096 |
| RGMLGLLEPPAKELQGI [RPO31] | 2.08 ± 0.18 | 1.72 ± 0.18 | 3.23 ± 0.16 | 3.28 ± 0.096 |
| AKLHRISPKIWCAGAGT [PUP1] | 1.93 ± 0.049 | 1.87 ± 0.046 | 1.88 ± 0.042 | 1.85 ± 0.056 |
| RKCETQKQWDDIAFVLN [YCS4] | 2.96 ± 0.076 | 3.01 ± 0.076 | 3.13 ± 0.078 | 2.7 ± 0.12 |
| MEYHISNTDETKGENYQ [FAS2] | 3.03 ± 0.12 | 3.22 ± 0.14 | – | 2.75 ± 0.2 |
| QSSLDVAGLEDKFRKAC [SIR3] | 3.62 ± 0.14 | 3.18 ± 0.16 | 3.06 ± 0.21 | 3.42 ± 0.13 |
| PTKAAQRARDQDSIDIS [GAL11] | 3.21 ± 0.094 | 3.16 ± 0.081 | 3.22 ± 0.073 | 3.36 ± 0.077 |
| TVNHSEKFPNDVKLLNP [RPP1] | 2.79 ± 0.05 | 2.87 ± 0.034 | 3 ± 0.036 | 3.08 ± 0.036 |
| TGNTTSKSAFSFGTANT [YOR098C/NUP1] | 2.5 ± 0.064 | 2.72 ± 0.058 | 2.75 ± 0.056 | 1.95 ± 0.076 |
| KITIGIQRTTESLILKW [RGR1] | 2.33 ± 0.086 | 1.6 ± 0.067 | 1.66 ± 0.04 | 1.49 ± 0.078 |
| DKQDGTAKPAFSFGAKP [YJL041W/NSP1] | 3.24 ± 0.087 | 3.29 ± 0.077 | 3.35 ± 0.086 | 3.22 ± 0.057 |

| Sequence | protein stability index (doa10∆) | protein stability index (pdr5∆) | protein stability index (ubr1∆) | protein stability index (san1∆) |
| --- | --- | --- | --- | --- |
| LYDSLASTPSIRPDGRL [RRP42] | 2.64 ± 0.14 | 2.81 ± 0.096 | 2.99 ± 0.088 | 2.4 ± 0.18 |
| PLKLSGEGPFTVKFKHM [YMR129W/POM152] | 2.92 ± 0.064 | 2.93 ± 0.064 | 2.72 ± 0.076 | 2.75 ± 0.086 |
| CLDQMTEQFCATLNYID [SRB7] | 2.39 ± 0.043 | 2.87 ± 0.047 | 2.65 ± 0.039 | 2.99 ± 0.049 |
| SLQDRSSLVRRNSVKLL [YCS4] | 2.02 ± 0.055 | 2.12 ± 0.049 | 1.56 ± 0.027 | 1.94 ± 0.062 |
| DPFSDVDDDQDYVVAPG [GRR1] | 2.56 ± 0.12 | 2.17 ± 0.2 | 3.55 ± 0.24 | 1.74 ± 0.19 |
| SSDGQLKKFRESLVHSA [BRR2] | 3.41 ± 0.15 | 3.25 ± 0.23 | 3.33 ± 0.13 | 3.22 ± 0.16 |
| ILVMETSEEQTKFLAKN [SWP82] | 3.01 ± 0.094 | 2.91 ± 0.11 | 3 ± 0.092 | 2.94 ± 0.048 |
| ILKRDFELVSDLSYIEF [ECM29] | 2.54 ± 0.079 | 2.67 ± 0.078 | 2.76 ± 0.054 | 2.58 ± 0.072 |
| EQTVSAVTEATSTNGDS [RGR1] | 3.45 ± 0.16 | 3.29 ± 0.077 | 3.43 ± 0.12 | 3.28 ± 0.083 |
| ENRKKDESDSENDIEIK [YLR335W/NUP2] | 2.68 ± 0.1 | 2.23 ± 0.15 | 2.73 ± 0.082 | 1.65 ± 0.12 |
| KENEESLTPTQSDSAKV [PRP28] | 3.13 ± 0.088 | 3.35 ± 0.063 | 3.11 ± 0.053 | 2.9 ± 0.095 |
| SGAITFVNETPRVIEPV [PRP8] | – | 1.96 ± 0.27 | 1.11 ± 0.045 | – |
| LANRSKENFILDSLMKT [YJL039C/NUP192] | 2.47 ± 0.095 | 2.64 ± 0.12 | 2.69 ± 0.069 | 3.03 ± 0.12 |
| RLRTLCRDSDDHKRFIV [DIS3] | 2.68 ± 0.2 | 2.75 ± 0.13 | 2.95 ± 0.048 | 2.2 ± 0.27 |
| DLYHFALNYENEAGRKL [SNF2] | 2.94 ± 0.16 | 3.13 ± 0.098 | 3.76 ± 0.26 | 3.26 ± 0.083 |
| LDSTGFDSTAFNATVDE [MED2] | 3.08 ± 0.048 | 3.27 ± 0.053 | 3.07 ± 0.038 | 3.06 ± 0.053 |
| YHSGRLLIQGPKASSAK [ITC1] | 3.15 ± 0.11 | 3.29 ± 0.078 | 3.17 ± 0.073 | 3.2 ± 0.059 |
| LNVIIDQLAVSPEQIDA [YCS4] | 2.19 ± 0.05 | 2.44 ± 0.056 | 2.11 ± 0.044 | 2.11 ± 0.064 |
| KDHLLLEEEFVSNSEIL [RPT2] | 2.87 ± 0.09 | 2.83 ± 0.065 | 2.74 ± 0.078 | 2.83 ± 0.066 |
| VGDVVGGALDNPFEDDM [BRN1] | – | 3.37 ± 0.15 | 3.16 ± 0.11 | 3.58 ± 0.21 |
| KILRDNIQGITKPAIRR [HHF1] | 3.17 ± 0.083 | 3.33 ± 0.077 | 3.21 ± 0.058 | 3.08 ± 0.055 |
| IRVAETRGGASALIENN [YJL039C/NUP192] | 2.39 ± 0.071 | 2.46 ± 0.089 | 2.89 ± 0.055 | 3.1 ± 0.072 |
| ETDDNIETVMTQEQFVK [SRB4] | – | 3.23 ± 0.17 | – | 2.6 ± 0.2 |
| LLSDPTITIKSYHLWPS [PRP8] | 2.33 ± 0.063 | 2.62 ± 0.073 | 2.51 ± 0.077 | 2.53 ± 0.094 |
| NENEDEDEGTLNVAEII [ARP9] | 3.37 ± 0.13 | 2.91 ± 0.14 | 2.13 ± 0.12 | 3.34 ± 0.072 |
